First the molecules themselves.
B1: native FlaB (flagellin type B, glycosylated) of Pseudomonas aeruginosa strain PAO1 (natural protein)
chain: MALTVNTNIASLNTQRNLNASSNDLNTSLQRLTTGYRINSAKDDAAGLQISNRLSNQISGLNVATRNANDGISLAQTAEGALQQSTNILQRIRDLALQSANGSNSDADRAALQKEVAAQQAELTRISDTTTFGGRKLLDGSFGTTSFQVGSNAYETIDISLQNASASAIGSYQVGSNGAGTVASVAGTATASGIASGTVNLVGGGQVKNIAIAAGDSAKAIAEKMDGAIPNLSARARTVFTADVSGVTGGSLNFDVTVGSNTVSLAGVTSTQDLADQLNSNSSKLGITASINDKGVLTITSATGENVKFGAQTGTATAGQVAVKVQGSDGKFEAAAKNVVAAGTAATTTIVTGYVQLNSPTAYSVSGTGTQASQVFGNASAAQKSSVASVDISTADGAQNAIAVVDNALAAIDAQRADLGAVQNRFKNTIDNLTNISENATNARSRIKDTDFAAETAALSKNQVLQQAGTAILAQANQLPQAVLSLLR
modifications: simple O-glycan without rhamnose, attached via deoxyhexosamine
B2: deglycosylated native FlaB (natural protein)
chain: MALTVNTNIASLNTQRNLNASSNDLNTSLQRLTTGYRINSAKDDAAGLQISNRLSNQISGLNVATRNANDGISLAQTAEGALQQSTNILQRIRDLALQSANGSNSDADRAALQKEVAAQQAELTRISDTTTFGGRKLLDGSFGTTSFQVGSNAYETIDISLQNASASAIGSYQVGSNGAGTVASVAGTATASGIASGTVNLVGGGQVKNIAIAAGDSAKAIAEKMDGAIPNLSARARTVFTADVSGVTGGSLNFDVTVGSNTVSLAGVTSTQDLADQLNSNSSKLGITASINDKGVLTITSATGENVKFGAQTGTATAGQVAVKVQGSDGKFEAAAKNVVAAGTAATTTIVTGYVQLNSPTAYSVSGTGTQASQVFGNASAAQKSSVASVDISTADGAQNAIAVVDNALAAIDAQRADLGAVQNRFKNTIDNLTNISENATNARSRIKDTDFAAETAALSKNQVLQQAGTAILAQANQLPQAVLSLLR
modifications: treated with trifluoromethanesulfonic acid to remove the O-glycans
B3: recombinant FlaB (non-glycosylated) (natural protein)
chain: MALTVNTNIASLNTQRNLNASSNDLNTSLQRLTTGYRINSAKDDAAGLQISNRLSNQISGLNVATRNANDGISLAQTAEGALQQSTNILQRIRDLALQSANGSNSDADRAALQKEVAAQQAELTRISDTTTFGGRKLLDGSFGTTSFQVGSNAYETIDISLQNASASAIGSYQVGSNGAGTVASVAGTATASGIASGTVNLVGGGQVKNIAIAAGDSAKAIAEKMDGAIPNLSARARTVFTADVSGVTGGSLNFDVTVGSNTVSLAGVTSTQDLADQLNSNSSKLGITASINDKGVLTITSATGENVKFGAQTGTATAGQVAVKVQGSDGKFEAAAKNVVAAGTAATTTIVTGYVQLNSPTAYSVSGTGTQASQVFGNASAAQKSSVASVDISTADGAQNAIAVVDNALAAIDAQRADLGAVQNRFKNTIDNLTNISENATNARSRIKDTDFAAETAALSKNQVLQQAGTAILAQANQLPQAVLSLLR

The target of the assay is human Toll-like receptor 5 on HEK-Blue-hTLR5 reporter cells (human) (UniProt O60602).
UniProt O60602, sequence (O60602 21-858): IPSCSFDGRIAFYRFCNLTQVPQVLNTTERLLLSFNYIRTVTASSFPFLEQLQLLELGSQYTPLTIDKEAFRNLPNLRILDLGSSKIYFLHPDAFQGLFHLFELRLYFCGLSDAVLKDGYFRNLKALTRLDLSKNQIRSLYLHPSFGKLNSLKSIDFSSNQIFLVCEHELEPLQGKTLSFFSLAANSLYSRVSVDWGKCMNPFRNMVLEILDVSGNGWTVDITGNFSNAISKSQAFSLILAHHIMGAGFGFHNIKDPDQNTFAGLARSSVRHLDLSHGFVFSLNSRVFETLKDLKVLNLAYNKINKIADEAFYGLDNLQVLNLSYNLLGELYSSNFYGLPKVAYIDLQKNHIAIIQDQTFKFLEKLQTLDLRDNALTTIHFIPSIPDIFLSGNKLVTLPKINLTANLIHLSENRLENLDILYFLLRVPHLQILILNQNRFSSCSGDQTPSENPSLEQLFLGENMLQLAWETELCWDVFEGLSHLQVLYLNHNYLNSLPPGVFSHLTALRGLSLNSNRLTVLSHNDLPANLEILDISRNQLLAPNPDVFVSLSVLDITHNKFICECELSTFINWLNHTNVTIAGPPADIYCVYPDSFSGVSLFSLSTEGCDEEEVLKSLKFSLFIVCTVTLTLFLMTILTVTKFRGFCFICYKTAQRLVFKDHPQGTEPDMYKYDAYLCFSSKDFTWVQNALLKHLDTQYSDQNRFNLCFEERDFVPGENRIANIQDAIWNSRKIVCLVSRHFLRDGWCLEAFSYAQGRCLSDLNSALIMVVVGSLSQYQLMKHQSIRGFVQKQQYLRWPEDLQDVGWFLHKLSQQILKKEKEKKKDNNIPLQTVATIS
As for “recombinant FlaA (non-glycosylated) (from UniProt P21184 1-394) (natural protein)”, the EC50 of TLR5 activation (SEAP, OD 620 nm) in HEK-Blue-hTLR5 reporter cells, 10 pg/mL to 10 µg/mL, 24 h worked out at 41.5 ng/mL.
The same measure, in the same setting: as for “deglycosylated native FlaA (from UniProt P21184 1-394) (natural protein)”, the figure is 292 ng/mL; as for “native FlaA (flagellin type A, glycosylated) of Pseudomonas aeruginosa strain PAK (from UniProt P21184 1-394) (natural protein)”, 2.1 ng/mL.
The same measure, in the same setting: the result for B1 reads 44.4 ng/mL.
Consider B2, for which the EC50 of TLR5 activation (SEAP, OD 620 nm) in HEK-Blue-hTLR5 reporter cells, 10 pg/mL to 10 µg/mL, 24 h; the sentence prints the label dnFlaA, taken as dnFlaB from the context of Fig. 4D amounted to 442 ng/mL.
For B3, the EC50 of TLR5 activation (SEAP, OD 620 nm) in HEK-Blue-hTLR5 reporter cells, 10 pg/mL to 10 µg/mL, 24 h came out at 104.

The values are drawn from publication PMC10929410.
